Measured values reported in patent US8114968 (dated 2012).
Changes are numbered by the printed parent chain. Where two headings read alike, the source gives them in different places. Values belong to the binder of their own block, whether it stands above or below them.

Tests used:
human MMP-12 [1] = biological target: T1, human MMP-12 (UniProt P39900 106-470)
murine MMP-12 [2] = biological target: T2, murine MMP-12 (UniProt P34960 110-473); experiment: enzyme inhibition; recombinant; peptide substrate
T2 sequence (P34960 110-473): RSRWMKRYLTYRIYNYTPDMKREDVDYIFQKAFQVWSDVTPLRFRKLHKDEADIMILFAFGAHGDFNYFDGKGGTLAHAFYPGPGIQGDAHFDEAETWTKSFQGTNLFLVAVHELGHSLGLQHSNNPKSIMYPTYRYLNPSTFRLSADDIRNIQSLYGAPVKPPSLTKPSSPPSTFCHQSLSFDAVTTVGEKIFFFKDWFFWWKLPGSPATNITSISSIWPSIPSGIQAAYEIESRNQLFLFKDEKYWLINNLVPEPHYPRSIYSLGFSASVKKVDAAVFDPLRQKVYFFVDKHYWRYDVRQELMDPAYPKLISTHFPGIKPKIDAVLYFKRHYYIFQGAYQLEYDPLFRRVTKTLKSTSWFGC

murine MMP-12 [3] = biological target: T2, murine MMP-12
murine MMP-12 [4] = biological target: T2, murine MMP-12; experiment: -; column head prints nM
human MMP-12 [5] = biological target: T1, human MMP-12; experiment: enzyme inhibition
murine MMP-12 [6] = biological target: T2, murine MMP-12; experiment: enzyme inhibition
M109-G11 [7] = biological target: M109-G11
M118-F11 [8] = biological target: M118-F11
M121-E07 [9] = biological target: M121-E07
M107-A12 [10] = biological target: M107-A12
M109-G11 [11] = biological target: M109-G11; remark: listed apart in the source
Target sequence in this assay (P34960 110-473): as above

M107-A12 [12] = biological target: M107-A12; remark: listed apart in the source
Target sequence in this assay (P34960 110-473): as above

M118-F11 [13] = experiment: -; column head prints nM
Target sequence in this assay (P34960 110-473): as above

M121-E07 [14] = experiment: -; column head prints nM
Target sequence in this assay (P34960 110-473): as above

M088-H10, sequence (P34960 110-473): as above

Kd (human MMP-12 [1]): 18 nM
IC50 (murine MMP-12 [2]): 3.7 nM
B1: 539B-M0008-H09 (format not stated) (antibody, V domains shown)
VH: EVQLLESGGGLVQPGGSLRLSCAASGFTFSDYNMHWVRQAPGKGLEWVSYIGPSGGYTHYADSVKGRFTISRDNSKNTLYLQMNSLRAEDTAVYYCAKDIRGAYSSGLFDYWGRGTLVTVSS
VL: DIQMTQSPSSLSASVGDRVTITCRANQSIYTYLNWYQQKPGKAPELLIYAASSLQSGVPSRFSGSGSGTDFTLTISSLQPEDFATYYCQQAGIFGQGTKLEIK

Kd (murine MMP-12 [3]): 3.4 nM
Kd (human MMP-12 [1]): 5.7 nM
B2: 539B-M0069-D10 (Fab, V domains shown)
VH: B1 VH with D31L, N33H, Y50G, Y57W, H59I
VL: B1 VL

Kd (murine MMP-12 [4]): 0.0727 nM
IC50 (human MMP-12 [5]): 0.321 nM
Kd (human MMP-12 [1]): 0.18 nM
B3: 539B-M131A06 (antibody, V domains shown)
VH: B1 VH with D31W, N33W, Y50G, G52S, Y57M, H59M, K98R, R101V, A103P, S106A
VL: B1 VL

Kd (human MMP-12 [1]): 1 nM
B4: 539B-M0071-H03 (Fab, V domains shown)
VH: B1 VH with D31P, N33W, Y50G, Y57P, H59F, V64I
VL: B1 VL

Kd (murine MMP-12 [3]): 1.3 nM
Kd (human MMP-12 [1]): 4.2 nM
B5: 539B-M0071-D09 (Fab, V domains shown)
VH: B1 VH with D31P, N33W, Y50G, G52S, P53S, Y57D, H59L
VL: B1 VL

Kd (murine MMP-12 [3]): 1.7 nM
Kd (human MMP-12 [1]): 1.1 nM
B6: 539B-M0065-E12 (Fab, V domains shown)
VH: B1 VH with D31W, Y50G, G52S, Y57N, H59M
VL: B1 VL

IC50 (human MMP-12 [5]): 0.233 nM
B7: 539B-M131A06-GA-S (antibody, V domains shown)
VH: B1 VH with D31W, N33W, Y50G, G52S, Y57M, H59M, K98R, R101V, A103P, S106A
VL: DIQMTQSPSSLSASVGDRVTITCRASQSIYTYLNWYQQKPGKAPKLLIYAASSLQSGVPSRFSGSGSGTDFTLTISSLQPEDFATYYCQQAGIFGQGTKLEIKR

IC50 (murine MMP-12 [6]): 9 nM
B8: 539B-M0011-H11 Fab (Fab, V domains shown)
VH: EVQLLESGGGLVQPGGSLRLSCAASGFTFSWYNMWWVRQAPGKGLEWVSYIYPSGGNTGYADSVKGRFTISRDNSKNTLYLQMNSLRAEDTAVYYCAVFEYSSSGPQGYWGQGTLVTVSS
VL: QSALTQPPSVSVAPGQTARITCGGNNIGTKSVHWYQQKSGQAPVLVVYDNSDRPSGIPERFSGSNSGNTATLTISRVEAGDEADYYCQVWDNSIDHVVFGGGTKLTVL

IC50 (murine MMP-12 [6]): 3 nM
B9: 539B-M11H11 IgG (antibody, V domains shown)
VH: B8 VH
VL: B8 VL

Kd (M109-G11 [7]): 7.5 nM
Kd (M118-F11 [8]): 1.17 nM
Kd (M121-E07 [9]): 0.197 nM
Kd (M107-A12 [10]): 1.8 nM
B10: Human MMP12 (enzyme)
chain: GPVWRKHYITYRINNYTPDMNREDVDYAIRKAFQVWSNVTPLKFSKINTGMADILVVFARGAHGDFHAFDGKGGILAHAFGPGSGIGGDAHFDEDEFWTTHSGGTNLFLTAVHEIGHSLGLGHSSDPKAVMFPTYKYVDINTFRLSADDIRGIQSLYGDPKENQRLPNPDNSEPALCDPNLSFDAVTTVGNKIFFFKDRFFWLKVSERPKTSVNLISSLWPTLPSGIEAAYEIEARNQVFLFKDDKYWLISNLRPEPNYPKSIHSFGFPNFVKKIDAAVFNPRFYRTYFFVDNQYWRYDERRQMMDPGYPKLITKNFQGIGPKIDAVFYSKNKYYYFFQGSNQFEYDFLLQRITKTLKSNSWFGC

Kd (M109-G11 [11]): 1 nM
Kd (M088-H10): 34.4 nM
Kd (M107-A12 [12]): 0.9 nM
Kd (M118-F11 [13]): 0.727 nM
Kd (M121-E07 [14]): 0.181 nM
B11: Mouse MMP12 (enzyme)
chain: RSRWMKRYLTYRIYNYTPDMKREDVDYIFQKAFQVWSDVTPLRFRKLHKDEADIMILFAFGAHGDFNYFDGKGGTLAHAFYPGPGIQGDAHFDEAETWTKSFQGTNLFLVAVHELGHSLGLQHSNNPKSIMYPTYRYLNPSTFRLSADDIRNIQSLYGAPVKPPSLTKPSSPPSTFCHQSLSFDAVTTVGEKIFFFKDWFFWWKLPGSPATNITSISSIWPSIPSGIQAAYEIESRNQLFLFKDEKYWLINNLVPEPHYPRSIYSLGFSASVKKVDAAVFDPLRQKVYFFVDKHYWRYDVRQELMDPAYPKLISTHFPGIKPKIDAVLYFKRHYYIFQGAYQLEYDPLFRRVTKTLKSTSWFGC
